Experiments:
[1] = biological target: GST-His6-2×HBD (UniProt O60930); test: BLI; details: EMSA: 30 nM probe, 20 mM Hepes pH 7.0, 100 mM NaCl, 5% glycerol, 10 mM DTT, 0.5 mM EDTA, 5 ug/ml salmon sperm DNA, 25°C 30 min; BLI: 20 mM Hepes-NaOH pH 7.5 …
[2] = biological target: T1, GST-His6-HBD (UniProt O60930); test: BLI; details: EMSA: 30 nM probe, 20 mM Hepes pH 7.0, 100 mM NaCl, 5% glycerol, 10 mM DTT, 0.5 mM EDTA, 5 ug/ml salmon sperm DNA, 25°C 30 min; BLI: 20 mM Hepes-NaOH pH 7.5 …
T1 sequence (O60930 whole entry, looked up): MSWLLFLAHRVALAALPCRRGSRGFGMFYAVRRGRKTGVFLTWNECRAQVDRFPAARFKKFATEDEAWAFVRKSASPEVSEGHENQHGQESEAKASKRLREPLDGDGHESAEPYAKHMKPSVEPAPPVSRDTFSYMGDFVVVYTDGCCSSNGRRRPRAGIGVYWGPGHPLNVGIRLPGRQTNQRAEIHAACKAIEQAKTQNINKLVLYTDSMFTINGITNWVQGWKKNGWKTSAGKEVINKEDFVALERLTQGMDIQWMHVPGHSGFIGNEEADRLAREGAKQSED

AGCGTGCCGTGCAACAACATTACAC / GUGUAAUGUUGUUGCACGGCACGCU [biotin DNA-RNA hybrid 25-mer (BLI)]
Kd [1]: 0.0104 µM | Kd [2]: 0.0165 µM

Source: publication PMC7888926
